Test: label from the status in PepcDB records

Sequence | protein production
MNYEIIDCIDSGTEYCPCHLAESGNCILCSQLNGKDFCDCVNWKGVCIYQEYTWNHNKAKKERSECICKIIKREEIDNNLIVLTIFIRKKLAEDLLYPGSYVFLRPTKSSRYYSSPISIMEASSDENIIKVIIEVKGIKTKSINELKEKDDIVLKGPYWNGVLGLKNIHSAKEGISLIIARGIGEAPIVPIMKKLYSNGNKVVVIADRGKFKANLIDKYLEEFSSETYNFNTLNKDGELPEDFKDFLLNFIRYNKVNLIHISGPNILTSKILDVVDEDIKISCSNNAKMCCGEGICGACSNIYDDDKMKRMCKVQIDPRYLFKGLRSI | failed
ESKSPIIQNVLSYITEHFSEGMSLKTLGNDFHINAVYLGQLFQKEMGEHFTDYLNRYRVNYAKEELLQTKDNLTIIAGKSGYTDMAYFYRQFKKHTGETPNRYRKIHQ | not failed
MAIKGPRKHLKRLAAPANWQLPRKVKTFTVRPSPGPHSMDKSLPLLLVVRDVLKYADNAREAKKIIQTGKILIDGLKRKEYKHPAGLMDVLSIPEMDETYLVLFDESGRISLKKTDKTDVKLCKIVNKTVVKGGNIQLNLHDGRNQIVKVSDAAKAEEDVYKTGDSVLISIPEQSIAGHVAFGEGKLAYITGGKHVGEFAKIVEVENRALYSDIVTLENKDGEKFKTVKPYVFIVGQDEPVISMLEHHHHHH | not failed
MMTTLQILFWLSLFLVFYTHLGYGILLYMLVKLKELFVKPVRRQLPPDKRLPDVTLFITAFNEEEVVDEKMRNCLGLDYPADKLHIVWTTDGSNDSTNQRLEDWPQATVHFQPLRQGKTAAMTRGMMLVDTPLVVFTDANTMLNREAIREIVRAFEDPKVGCVAGEKRIAVQEKDGAAAGGEGIYWKYESTLKALDARLYSAVGAAGELFAVRRELFTVMEPDTLLDDFILSLRIAMQGYKIAYCTQAYAIESGSADIREEQKRKVRIAAGGLQSIWRLRELLNPFRYGVLTFQYVSHRVLRWSLAPVLLFALLPLNIAILLAGGSPVCYGTILALQLLFYIMGGWGYYLSTRQVKNKLLFIPYYFLFMNINVMKGVNYLRKKKGTGAWEKAKRTKTESLNQ | failed
MTFTSNLPSSSEQSISPPASSFSSSTDTLKDIDIPHNGADLSTYSKFLALYCRSDKCDDFYSLEEKQNCKFGDQWLDFINTIHNLDFSESEVSGRVSERILPASLANKFTNNLGVAIKISEYTRDDERQIRGCVTTVENENSFNNWFVYHILDQSQLSLSEHPIVTKEVKYHELFADFFEKNLKNTIVNDQWNFGGRDYFIERSRYFTDRYLRIECILPAFPCKSSNEQKVYGSVPDKGEELALKRLIKATQDLVKIYPPGMKIWIVSDGHVFSDCIGVDDDVVSTYTTKLHELYKRVAIPGVDAIGFCGLNDLFFSGAASKVFDPKWVSDVEVAHYTGTQICPKSDLSRQILMKGCDTDAGRLRKQIAIEGHPRLHLYRGFSRFMMEDLSLLEHFQSYSRKKFKKIISMIAFNMIKRNDAYSNLVELIFPHHLRISIHAHTNSGPKFGIKVISNEQCSIVSSLEDLDEPKFEDFLHIPTPWHNCVVKVEDEKEKYFLTKSKVVKEALEKGMYDGVWKDTRFDIGEGGHFVIKKIS | failed
TSVKEFAMKHDHFVVQSPDKPAQQLLLLFHGVGDNPVAMGEIGSWFAPLFPDALVVSVGGAEPSGNPAGRQWFSVQGITEDNRQARVDAIMPTFIETVRYWQKQSGVGANATALIGFSQGAIMALESIKAEPGLASRVIAFNGRYASLPETASTATTIHLIHGGEDPVIDLAHAVAAQEALISAGGDVTLDIVEDLGHAIDNRSMQLALDHLRYTIPKHY | failed
MLTSFKLHSLKPYTLKSSMILEIITYILCFFSMIIAFVDNTFSIKIYNITAIVCLLSLILRGRQENYNIKNLILPLSIFLIGLLDLIWYSAFKVDNSPFRATYHSYLNTAKIFIFGSFIVFLTLTSQLKSKKESVLYTLYSLSFLIAGYAMYINSIHENDRISFGVGTATGAAYSTMLIGIVSGVAILYTKKNHPFLFLLNSCAVLYVLALTQTRATLLLFPIICVAALIAYYNKSPKKFTSSIVLLIAILASIVIIFNKPIQNRYNEALNDLNSYTNANSVTSLGARLAMYEIGLNIFIKSPFSFRSAESRAESMNLLVAEHNRLRGALEFSNVHLHNEIIEAGSLKGLMGIFSTLFLYFSLFYIAYKKRALGLLILTLGIVGIGLSDVIIWARSIPIIIISAIVLLLVINNRNNTIN | failed
MGLSKVEEKYRKSHEIFLKRLAALPKPEFDNTLPVHEKLDEIKKTVAEHQVTIICGETGSGKTTQLPKICLELGRGVAGLIGHTQPRRLAARSVAERIAEELKSEIGSAVGYKVRFTDHTSRDACVKLMTDGILLAETQTDRYLAAYDTIIIDEAHERSLNIDFLLGYLKQLLPRRPDLKVIITSATIDAERFSRHFNGAPVLEVSGRTYPVEILYRPLTGKDEDDAEVELTDAIVDAADELARHGEGDILVFLPGEREIRETAEALRKSTLRRNDEILPLFARLSHAEQHKIFHPSGAKRRIVLATNVAETSLTVPGIKYVIDTGLARVKRYSARAKVEQLHVEKISQAAARQRSGRCGRVSAGVCIRLFSEEDFNSRPEFTDPEIVRSNLAAVILRMASLNLGDVAAFPFLEMPDSRYINDGFQVLLELGAVEAVLEHHHHHH | failed
SHIIVIGAGITGVTSAYELIKLGFQVTVIDRHLFPAMETSFANGGQLSACNAEVWNQRSTISKGIKWMSKKDAPLLLNPSFNLHKYSWLFEFLSHIKHYEQNTIETVRLALLARKRLFEIAEIENIDFNLERRGILHIYHTPSDYEIAKNVNDLLNKATLHRYQVNPDEIKTIEPALSGEYCGGYYTPDDATGDIHKFCVGLADSSKRDGVDYKFGWDVNQIELLEKGVIVSCIPSTENMTEPSSQHLRLEADGIVVCGGVGSYQLAHMLGDRVNVYPVKGYSITVHLNDEHSIENAPWVSLLDESAKIVTSRLGKDRLRVAGTAEFNGYNRDIRADRIQPLINWVNANFEISTEHVVPWSGLRPMMPNMMPVVRQGKHPRVFYNTGHGHLGWTLSAATAAIIGQEIQSKIP | failed
MARYRGAVERLERRFGVSLALKGERRLSGKSALDKRAYGPGQHGQRRAKTSDYGLQLKEKQKAKMMYGISEKQFRSIFVEANRLDGNTGENLIRLIERRLDNVVYRMGFATTRSSARQLVTHGHVLVDGKRLDIPSYFVRSGQKIEIKEKTKSNSQVVRAMELTAQTGIVPWIDVEKDKKYGIFTRYPEREEVVVPIEERLIVELYSK | failed
MGHHHHHHSHMVSDIRRFLSAFHEPQVGLIQAAQQLLCDEQAPQRQRLLADLLHNVSQNIAAETRAEDPPWFEGLESRFQSKSGYLRYSCESRIRSYLREVSSYPSTVGAEAQEEFLRVLGSMCQRLRSMQYNGSYFDRGAKGGSRLCTPEGWFSCQGPFDMDSCLSRHSINPYSNRESRILFSTWNLDHIIEKKRTIIPTLVEAIKEQDGREVDWEYFYGLLFTSENLKLVHIVCHKKTTHKLNCDPSRIYKPQTRLKRKQPVRKRQ | failed
PNVVKMNKPFISLCPEITRAHALTLMDWLEDEHVTRHLSDSRHVSRFIEQVIDRVQLPVLTHLFNQGGRFFMAYDRHDVPVGFVRLVKTGSDCEIVLVIGNRDNWGRKLGASAIREGMKLAFFEMRAARLIAKVHPDNERSLNAFLRCGFVLE | not failed
MMDFDFLEGKRLTEDVALDETMVWNEDIEMLDLHLVATSALIGVVHRVSYELLSRYLPNDYTAVVVETLARHVKAVPTGTRVAVGVRVVGVVGNRVKFRGIVMSGDEKILEAEFVRAIVPREKLRRLALEKAEKTSRLFGI | not failed
MTIYSPDTINFNGVSGDRYWFDEPFPYTGVADIDERLSGFPVAVFLPHHRPRQETPLVIGLQGMCAPYGWNAFIVPILIEMGIAVALFDPPLSGERSLVRTSTTLVQNEIKPLIDRGIPFDTALFLSIFRTTARDIGKIREFCGDRYGLTDSRLALFGVSMGVLLSAYAFTANSLGDRLLGTIGHADLPSFAKSWGRPFLPDLAASPLGGLAESLLQRLQPDLAPLFNLLRLTKNLKYQDEYAWDCNPMNYIQQVESHRRVRFLIGANDSIVKIKDARACAQKFPDGDCYIVPGMGHGTRQSGVSFVDHVRYFLATQLGDWRG | failed
MANVAIIGTEKSGRTSLAANLGKKGTSSDITMYNNDKEGRNMVFVDAHSYPKTLKSLITALNISDIAVLCIPPQGLDAHTGECIIALDLLGFKHGIIALTRSDSTHMHAIDELKAKLKVITSGTVLQDWECISLNTNKSAKNPFEGVDELKARINEVAEKIEAENAELNSLPARIFIDHAFNVTGKGCVVLGVVKQGISKDKDKTKIFPLDRDIEIRSIQSHDVDIDSAPAGTRVGMRLKNVQAKDIERGFIISDKEIVTTDYTLECTVSKFTKKIEPASVLHLFVGLQSEPVRVEKILVDGNEVEEAKPGSTCVLELSGNKKLAYSKQDRFLLANLDLTQRFAAYGFSK | not failed

From a protein production outcome set (Wang et al. 2014)
